In patent US20120253013A1:

Molecular target: HGF receptor c-Met on uninfected HUVECs (human) (UniProt P08581)
Assay: cell-based or functional assay

UniProt P08581, sequence (P08581 25-1390): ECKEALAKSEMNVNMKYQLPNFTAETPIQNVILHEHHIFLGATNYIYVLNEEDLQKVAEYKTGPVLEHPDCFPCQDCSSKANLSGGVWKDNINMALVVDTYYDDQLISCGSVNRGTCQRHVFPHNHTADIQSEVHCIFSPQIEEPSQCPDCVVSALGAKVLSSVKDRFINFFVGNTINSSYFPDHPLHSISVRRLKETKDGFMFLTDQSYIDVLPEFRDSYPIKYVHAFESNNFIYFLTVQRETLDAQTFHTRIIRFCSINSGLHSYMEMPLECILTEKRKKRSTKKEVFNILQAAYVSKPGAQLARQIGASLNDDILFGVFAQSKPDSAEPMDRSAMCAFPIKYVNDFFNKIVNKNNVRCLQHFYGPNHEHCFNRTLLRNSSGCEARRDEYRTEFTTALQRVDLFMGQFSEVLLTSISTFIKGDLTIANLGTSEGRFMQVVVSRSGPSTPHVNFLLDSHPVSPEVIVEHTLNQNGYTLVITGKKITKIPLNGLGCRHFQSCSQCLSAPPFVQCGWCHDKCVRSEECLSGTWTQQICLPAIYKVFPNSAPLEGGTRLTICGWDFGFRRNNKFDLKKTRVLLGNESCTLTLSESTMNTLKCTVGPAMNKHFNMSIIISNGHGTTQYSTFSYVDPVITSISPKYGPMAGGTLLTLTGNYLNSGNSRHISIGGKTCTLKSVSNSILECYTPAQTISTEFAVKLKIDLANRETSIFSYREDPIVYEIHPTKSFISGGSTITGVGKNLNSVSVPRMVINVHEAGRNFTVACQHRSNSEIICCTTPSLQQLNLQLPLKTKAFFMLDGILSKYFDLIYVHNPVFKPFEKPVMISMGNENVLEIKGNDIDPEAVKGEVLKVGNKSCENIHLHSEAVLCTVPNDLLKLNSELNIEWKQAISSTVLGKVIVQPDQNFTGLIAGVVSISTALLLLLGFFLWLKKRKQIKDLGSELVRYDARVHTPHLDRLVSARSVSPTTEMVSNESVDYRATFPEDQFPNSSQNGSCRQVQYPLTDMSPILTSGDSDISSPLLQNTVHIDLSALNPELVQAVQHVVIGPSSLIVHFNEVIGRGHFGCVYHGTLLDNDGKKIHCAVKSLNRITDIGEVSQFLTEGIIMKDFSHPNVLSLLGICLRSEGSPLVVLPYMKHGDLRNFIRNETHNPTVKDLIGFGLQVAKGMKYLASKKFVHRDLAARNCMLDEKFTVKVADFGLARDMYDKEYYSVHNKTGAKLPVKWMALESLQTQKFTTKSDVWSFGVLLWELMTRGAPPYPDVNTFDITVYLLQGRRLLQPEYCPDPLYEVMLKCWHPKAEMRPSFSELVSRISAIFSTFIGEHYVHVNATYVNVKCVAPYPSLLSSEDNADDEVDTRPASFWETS

c-Met receptor phosphorylation on tyrosine 1234/1235 (PathScan Phospho-Met Sandwich ELISA), fold increase against Ad-lacZ: 1.8 fold
Substance: hepatocyte growth factor (HGF) in conditioned medium from Ad-Egr3 infected HUVECs (from UniProt P14210 32-728) (ligand)
